In patent US20140243255A1:

Biological target: Mtb ClpP1P2 protease complex (one heptameric ClpP1 ring and one heptameric ClpP2 ring) (Mycobacterium tuberculosis) (UniProt P0A527)

Substance	Kd [µM]
Z-Leu-Leu (peptide)	2200
Z-Leu-leucinal (peptide)	240
